{"source": "paper PMC5391581", "key": {"[1]": {"biological_target": "SV40 LT 131-627 cL557A (Simian Virus 40)", "assay": "SEC; Superdex 200 10/300 GL; 250 μg LT (0.8 μg/μL) incubated with 4 mM ATP and 1 mM MgCl2; 25 mM Tris pH 8.0, 250 mM NaCl, 0.5 mM TCEP; percent hexamer from peak areas; monomer to hexamer"}, "[2]": {"biological_target": "SV40 LT 131-627 cS430T (Simian Virus 40)", "assay": "SEC; Superdex 200 10/300 GL; 250 μg LT (0.8 μg/μL) incubated with 4 mM UTP and 1 mM MgCl2; 25 mM Tris pH 8.0, 250 mM NaCl, 0.5 mM TCEP; percent hexamer from peak areas; monomer to hexamer"}, "[3]": {"biological_target": "SV40 LT 131-627 cS430T (Simian Virus 40)", "assay": "SEC; Superdex 200 10/300 GL; 250 μg LT (0.8 μg/μL) incubated with 4 mM ATP and 1 mM MgCl2; 25 mM Tris pH 8.0, 250 mM NaCl, 0.5 mM TCEP; percent hexamer from peak areas; monomer to hexamer"}, "[4]": {"biological_target": "SV40 LT 131-627 cW393A (Simian Virus 40)", "assay": "SEC; Superdex 200 10/300 GL; 250 μg LT (0.8 μg/μL) incubated with 4 mM ATP and 1 mM MgCl2; 25 mM Tris pH 8.0, 250 mM NaCl, 0.5 mM TCEP; percent hexamer from peak areas; monomer to hexamer"}, "[5]": {"biological_target": "SV40 LT 131-627 tK419A (Simian Virus 40)", "assay": "SEC; Superdex 200 10/300 GL; 250 μg LT (0.8 μg/μL) incubated with 4 mM ATP and 1 mM MgCl2; 25 mM Tris pH 8.0, 250 mM NaCl, 0.5 mM TCEP; percent hexamer from peak areas; monomer to hexamer"}, "[6]": {"biological_target": "SV40 LT 131-627 tK419A (Simian Virus 40)", "assay": "SEC; Superdex 200 10/300 GL; 250 μg LT (0.8 μg/μL) incubated with 4 mM TTP and 1 mM MgCl2; 25 mM Tris pH 8.0, 250 mM NaCl, 0.5 mM TCEP; percent hexamer from peak areas; monomer to hexamer"}, "[7]": {"biological_target": "SV40 Large Tumor Antigen (LT) 131-627, wild type (Simian Virus 40)", "assay": "SEC; Superdex 200 10/300 GL; 250 μg LT (0.8 μg/μL) incubated with 4 mM UTP and 1 mM MgCl2; 25 mM Tris pH 8.0, 250 mM NaCl, 0.5 mM TCEP; percent hexamer from peak areas; monomer to hexamer"}, "[8]": {"biological_target": "SV40 Large Tumor Antigen (LT) 131-627, wild type (Simian Virus 40)", "assay": "SEC; Superdex 200 10/300 GL; 250 μg LT (0.8 μg/μL) incubated with 4 mM ATP and 1 mM MgCl2; 25 mM Tris pH 8.0, 250 mM NaCl, 0.5 mM TCEP; percent hexamer from peak areas; monomer to hexamer"}}}
{"substance": "SV40 LT 131-627 cL557A (domain or fragment)", "values": [{"measurement": "percent hexamer formed (ATP + Mg++)", "setting": "[1]", "result": 99.9, "unit": "%"}, {"measurement": "stoichiometry N", "setting": "[1]", "result": 6}]}
{"substance": "SV40 LT 131-627 cS430T (domain or fragment)", "values": [{"measurement": "percent hexamer formed (UTP + Mg++)", "setting": "[2]", "result": 84.6, "unit": "%"}, {"measurement": "stoichiometry N", "setting": "[3]", "result": 6}]}
{"substance": "SV40 LT 131-627 cW393A (domain or fragment)", "values": [{"measurement": "percent hexamer formed (ATP + Mg++)", "setting": "[4]", "result": 97.9, "unit": "%"}, {"measurement": "stoichiometry N", "setting": "[4]", "result": 6}]}
{"substance": "SV40 LT 131-627 tK419A (domain or fragment)", "values": [{"measurement": "percent hexamer formed (ATP + Mg++)", "setting": "[5]", "result": 83.9, "unit": "%"}, {"measurement": "stoichiometry N", "setting": "[5]", "result": 6}, {"measurement": "decrease in hexamer formation compared to WT (TTP + Mg++)", "setting": "[6]", "result": 25.2, "unit": "%"}]}
{"substance": "SV40 Large Tumor Antigen (LT) 131-627, wild type (domain or fragment)", "values": [{"measurement": "percent hexamer formed (UTP + Mg++)", "setting": "[7]", "result": 69.4, "unit": "%"}, {"measurement": "stoichiometry N", "setting": "[8]", "result": 6}]}
